In article PMC5615199, “Structural Basis for EarP-Mediated Arginine Glycosylation of Translation Elongation Factor EF-P” (mBio, 2017):

What was measured:
[1] = test system: T1, Cc1cn([C@H]2C[C@H](O)[C@@H](COP(=O)(O)OP(=O)(O)O[C@H]3O[C@@H](C)[C@H](O)[C@@H](O)[C@H]3O)O2)c(=O)[nH]c1=O; experiment: Western blot quantification (anti-Arg-Rha) of EF-P rhamnosylation; type: biochemical, Pseudomonas putida; conditions: co-substrate unmodified P. putida EF-P 2.5 µM, 100 mM NaPi pH 7.6, 30°C
T1 construct: full-length (residues 1 to 377), 43 kDa, His6-tagged (C-terminal from pBAD33-earPPpu, N-terminal from pACYC-DUET for crystallization), expressed in E. coli; monomer

[2] = test system: T1, Cc1cn([C@H]2C[C@H](O)[C@@H](COP(=O)(O)OP(=O)(O)O[C@H]3O[C@@H](C)[C@H](O)[C@@H](O)[C@H]3O)O2)c(=O)[nH]c1=O; experiment: as above; type: biochemical, Pseudomonas putida; conditions: co-substrate unmodified P. putida EF-P 2.5 µM, 0.5 µM EarP, 100 mM NaPi pH 7.6, 30°C
From the text: Western blot quantification (anti-Arg-Rha) of EF-P rhamnosylation on EarPPpu (EF-P-arginine rhamnosyltransferase EarP) | when we measured the kinetics of the F191A^EarP and Y193A^EarP variants

[3] = PcadBA::lacZ β-galactosidase, E. coli Δefp; conditions: glycan lost; control: EF-PPpu coproduced with wild-type EarPPpu
[4] = biological target: T2, EarPPpu, EarP from Pseudomonas putida KT2440, purified His6-tagged protein (Pseudomonas putida KT2440, UniProt Q88LS1 2-377); experiment: NMR titration; 15N-labelled EF-P (150 µM unmodified or 41 µM rhamnosylated) titrated with unlabelled EarP to a 1:2 EF-P/EarP molar ratio, 1H-15N HSQC, 298 K, 100 mM NaPi pH 7.6, 50 mM NaCl, 5 mM DTT; conditions: both partners purified
T2 construct: EarP, Pseudomonas putida KT2440, 43 kDa; domains are told as aa 1-153, 184-361 and 362-377; also called WT^EarP; source: E. coli LMG194 (pBAD33-earPPpu) or E. coli BL21(DE3) (pACYC-DUET-earPPpu), purified (Ni-NTA)
T2 sequence: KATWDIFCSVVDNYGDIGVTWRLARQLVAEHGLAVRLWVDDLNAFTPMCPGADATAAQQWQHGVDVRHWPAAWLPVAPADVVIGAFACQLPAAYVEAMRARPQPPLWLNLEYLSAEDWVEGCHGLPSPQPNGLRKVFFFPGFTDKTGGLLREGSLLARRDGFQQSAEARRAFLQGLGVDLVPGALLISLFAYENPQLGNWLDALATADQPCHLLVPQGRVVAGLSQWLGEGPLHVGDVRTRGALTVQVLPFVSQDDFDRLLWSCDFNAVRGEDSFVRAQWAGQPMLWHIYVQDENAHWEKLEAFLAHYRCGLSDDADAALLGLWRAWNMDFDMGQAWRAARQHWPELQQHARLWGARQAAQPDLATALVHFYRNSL

[5] = substrate: Cc1cn([C@H]2C[C@H](O)[C@@H](COP(=O)(O)OP(=O)(O)O[C@H]3O[C@@H](C)[C@H](O)[C@@H](O)[C@H]3O)O2)c(=O)[nH]c1=O; experiment: Western blot quantification (anti-Arg-Rha) of EF-P rhamnosylation; type: biochemical, Pseudomonas putida; conditions: co-substrate unmodified P. putida EF-P 2.5 µM, 0.1 µM EarP, 100 mM NaPi pH 7.6, 30°C, 20 s
[6] = lowest-mass SEC fraction of a partly unfolded, aggregating variant

Work on “EarPPpu (EF-P-arginine rhamnosyltransferase EarP) (Pseudomonas putida KT2440; D274A)” yielded a Km [1, 6] of 206 µM and a kcat [1, 6] of 0.0123 s⁻¹.

With “EarPPpu (EF-P-arginine rhamnosyltransferase EarP) (Pseudomonas putida KT2440; F191A)” the Km [2] was 810 µM and the kcat [2] was 0.00017 s⁻¹.

In the case of “EarPPpu (EF-P-arginine rhamnosyltransferase EarP) (Pseudomonas putida KT2440; F252A)”, the Km [1] is reported as 3400 µM.

For “EarPPpu (EF-P-arginine rhamnosyltransferase EarP) (Pseudomonas putida KT2440; Y193A)”, the Km [2] was 760 µM and the kcat [2] was 0.00017 s⁻¹.

B1: EF-PPpu (translation elongation factor EF-P): coproduction with inactive D13AEarP (protein)
parent chain: MKTGKELKPGTVLRIDNDPWLVQKAEFTKSGRNSAIMKTKLKNLLTGYKTETVYGADDKLDDVILDRKEATLSFINGDEYTFMDTTDYTMYELNAEDIEAVLPYIEEGMEDVCEAVFFEGRLVSVELPTTISRKVVYTENAARGDTSGKVMKPAKLANGTEISVADFIQIDEWIDIDTRDNSFKGRSKK
For B1, the “other: EF-P translational rescue activity (PcadBA activation)” value [3] was “abolishes”.

B2: EF-PPpu (translation elongation factor EF-P): coproduction with inactive E273AEarP (protein)
parent chain: MKTGKELKPGTVLRIDNDPWLVQKAEFTKSGRNSAIMKTKLKNLLTGYKTETVYGADDKLDDVILDRKEATLSFINGDEYTFMDTTDYTMYELNAEDIEAVLPYIEEGMEDVCEAVFFEGRLVSVELPTTISRKVVYTENAARGDTSGKVMKPAKLANGTEISVADFIQIDEWIDIDTRDNSFKGRSKK
For B2, the “other: EF-P translational rescue activity (PcadBA activation)” value [3] was “abolishes”.

B3: EF-PPpu (translation elongation factor EF-P): coproduction with inactive D17AEarP (protein)
parent chain: MKTGKELKPGTVLRIDNDPWLVQKAEFTKSGRNSAIMKTKLKNLLTGYKTETVYGADDKLDDVILDRKEATLSFINGDEYTFMDTTDYTMYELNAEDIEAVLPYIEEGMEDVCEAVFFEGRLVSVELPTTISRKVVYTENAARGDTSGKVMKPAKLANGTEISVADFIQIDEWIDIDTRDNSFKGRSKK
In the case of B3, the “other: EF-P translational rescue activity (PcadBA activation)” value [3] is reported as “abolishes”.

B4: unmodified EF-PPpu, purified, tag-free (natural protein, Pseudomonas putida, UniProt Q88LS0 1-189, looked up)
chain: MKTGKELKPGTVLRIDNDPWLVQKAEFTKSGRNSAIMKTKLKNLLTGYKTETVYGADDKLDDVILDRKEATLSFINGDEYTFMDTTDYTMYELNAEDIEAVLPYIEEGMEDVCEAVFFEGRLVSVELPTTISRKVVYTENAARGDTSGKVMKPAKLANGTEISVADFIQIDEWIDIDTRDNSFKGRSKK
notes: translation elongation factor EF-P, Pseudomonas putida; 15N-labelled for the NMR titration (grown in M9 minimal medium); source: E. coli BL21(DE3) (pET-SUMO-efpPpu), purified (Ni-NTA, tag removed with His6-Ulp1)
B4: binds [4].

B5: rhamnosylated EF-PPpu (EF-P^Rha), purified (natural protein, Pseudomonas putida, UniProt Q88LS0 1-189, looked up)
chain: MKTGKELKPGTVLRIDNDPWLVQKAEFTKSGRNSAIMKTKLKNLLTGYKTETVYGADDKLDDVILDRKEATLSFINGDEYTFMDTTDYTMYELNAEDIEAVLPYIEEGMEDVCEAVFFEGRLVSVELPTTISRKVVYTENAARGDTSGKVMKPAKLANGTEISVADFIQIDEWIDIDTRDNSFKGRSKK
modifications: rhamnosyl-arginine at R32
notes: translation elongation factor EF-P, Pseudomonas putida, rhamnosylated on arginine 32; 15N-labelled for the NMR titration; also called modified EF-P; source: E. coli, cooverproduced with His6-tagged EarPPpu, purified
B5: binds [4].

B6: EarPPpu (EF-P-arginine rhamnosyltransferase EarP) (Pseudomonas putida KT2440) (protein)
chain: MKATWDIFCSVVDNYGDIGVTWRLARQLVAEHGLAVRLWVDDLNAFTPMCPGADATAAQQWQHGVDVRHWPAAWLPVAPADVVIGAFACQLPAAYVEAMRARPQPPLWLNLEYLSAEDWVEGCHGLPSPQPNGLRKVFFFPGFTDKTGGLLREGSLLARRDGFQQSAEARRAFLQGLGVDLVPGALLISLFAYENPQLGNWLDALATADQPCHLLVPQGRVVAGLSQWLGEGPLHVGDVRTRGALTVQVLPFVSQDDFDRLLWSCDFNAVRGEDSFVRAQWAGQPMLWHIYVQDENAHWEKLEAFLAHYRCGLSDDADAALLGLWRAWNMDFDMGQAWRAARQHWPELQQHARLWGARQAAQPDLATALVHFYRNSL
notes: full-length (residues 1 to 377), 43 kDa, His6-tagged (C-terminal from pBAD33-earPPpu, N-terminal from pACYC-DUET for crystallization), expressed in E. coli; monomer
With B6 the Km [5] was 53 µM and the kcat [5] was 0.583 s⁻¹.
